Here are results for four molecules from paper PMC5345856, “Suppressor of rid1 (SID1) shares common targets with RID1 on florigen genes to initiate floral transition in rice”.

The chains are these.
T1: RID1 (Oryza sativa (rice), UniProt B1B534 1-475)
T1 sequence: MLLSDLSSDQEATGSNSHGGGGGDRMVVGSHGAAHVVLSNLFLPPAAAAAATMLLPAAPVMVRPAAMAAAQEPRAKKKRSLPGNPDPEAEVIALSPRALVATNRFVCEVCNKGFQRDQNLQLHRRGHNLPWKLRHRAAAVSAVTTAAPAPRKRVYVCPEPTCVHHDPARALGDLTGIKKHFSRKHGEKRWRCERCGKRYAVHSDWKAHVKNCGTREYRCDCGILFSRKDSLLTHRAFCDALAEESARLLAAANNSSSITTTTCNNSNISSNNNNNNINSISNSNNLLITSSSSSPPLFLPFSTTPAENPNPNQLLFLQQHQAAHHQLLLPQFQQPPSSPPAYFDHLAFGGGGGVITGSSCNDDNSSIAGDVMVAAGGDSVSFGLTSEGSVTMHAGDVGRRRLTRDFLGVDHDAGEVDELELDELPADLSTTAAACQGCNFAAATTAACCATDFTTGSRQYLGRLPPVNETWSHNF

B1: bio-RFT1 (dsDNA)
DNA 1: ATAACGTTTGACCATTTGTCTTATTAAATATATATATAAA
DNA 2: TTTATATATATATTTAATAAGACAAATGGTCAAACGTTAT
B2: bio-RFT1-M (dsDNA)
DNA 1: B1 DNA 1 with T17A, G18A
DNA 2: B1 DNA 2 with C23T, A24T
B3: bio-Hd3a (dsDNA)
DNA 1: CTTATCTTGCCCGGACAAATCGAGCTAAGCAA
DNA 2: TTGCTTAGCTCGATTTGTCCGGGCAAGATAAG
B4: bio-Hd3a-M (dsDNA)
DNA 1: B3 DNA 1 with C16T, A17T
DNA 2: B3 DNA 2 with T16A, G17A

Numbering of substitutions follows the chain as printed.

The target in this data set is T1, RID1. As to the kind of experiment: EMSA; 10 uM ZnCl2; 10 mM Tris (pH not stated), 50 mM KCl, 10 uM ZnCl2, 1 mM DTT, 1 ug/ul poly(dI-dC), 0.1% BSA, 2.5% glycerol, 0.05% NP-40; 50 fmol probe; 30 min on ice; 6% native PAGE. The following applies: protein: recombinant; tags: His (pET-32a; vector Trx fusion not mentioned); label: 5' biotin; blunt. Background: In EMSA bound probe runs differently from free probe, usually more slowly.
For B1, the binding result is “binds”.

As for B2, the binding result was “no binding”.

Regarding B3, the binding result is given as “binds”.

As to B4, the binding result is “no binding”.
